Experiments:
[1] = test system: CCD-1112SK primary baby foreskin cells
From the text: Apoptosis of cells can also be detected by terminal deoxynucleotidyl transferase mediated dUTP nick end labeling (TUNEL) assay.

293GP or ZR-75-1 cells = experiment: Morphological change by Ea-2, Ea-3, Ea-4 peptides; format: cell-based, human; details: 0.8 μM, 24 hours
Procedure: Approximately 1-2×10^5 of MCF-7, ZR-75-1, HT-29, HepG2, 293GP, HC or SK-N-F1 cells re-suspended in their respective basal medium without fetal bovine serum (FBS) were plated in a 6-well culture chamber. Prior to plating cells, an acid-washed coverslip was placed in each well of the culture chamber. Recombinant rainbow trout E-peptides (rtEa-2, rtEa-3 or rtEa-4 peptide at 0.8 µM), human IGF-I (hIGF-1, 2.5 nM) or the same amount of control protein was added to each well and the cell cultures were incubated at 37° C. under a humidified atmosphere of 5% CO2. The control protein was prepared from E. coli cells carrying the expression plasmid but without the E-peptide gene according to the purification method described by Tian et al. (1999). Coverslips were removed from the culture chamber 24 hours after initiation of the treatment and observed under an Olympic inverted microscope equipped with differential interference phase contrast objective lenses or phase contrast objective lens (final magnification, 200×). The morphological change assay was performed at least 10 times with different batches of Ea-4 peptide preparations.
Cells were again cultured as described above. Twenty-four hours after treatment with 0.8 µM of E-peptides or the control protein, the cells were observed under an Olympic inverted microscope equipped with differential interference phase contrast objective lenses (200× magnification). […] To confirm this hypothesis, synthetic peptides specific to Ea-1-, Ea-2-, Ea-3- and Ea-4-peptide (Ea-1sp, Ea-2sp, Ea-3sp and Ea-4sp) specific sequence (see FIG. 1) were prepared and tested for their activities to induce morphological change in ZR-75-1 cells. For FIG. 6, cells were cultured in F12/DME medium without FBS as described above. Twenty-four hours after treatment with 0.8 µM of synthetic peptide containing Ea-1 sp, Ea-2sp, Ea-3sp or Ea-4sp specific sequence or the control protein, the cells were observed under an Olympic inverted microscope equipped with differential interference phase contrast objective lenses (200× magnification).

[2] = test system: HT-29 or MDA-MB-231 cells; experiment: Colony formation assay in semi-solid medium (Ea-4 peptide); format: cell-based, human; details: increasing concentrations (0.4 to 1.6 μM), 1.25% FBS, vs control protein
Procedure: Colony formation assays were conducted following the method described by Yang (1975). About 2×10^4 of HT-29 (colon cancer cells) or MDA-MB-231 cells (aggressive breast cancer cells) at log phase were plated in their respective basal medium containing 1.25% FBS and 0.5% purified agar (Difco laboratories), and supplemented with various concentrations (0.4 to 1.6 µM) of the recombinant rainbow trout Ea-4 peptide, or the same amount of the control protein, in 6-well culture chambers. After the medium is solidified, each well is overlaid with 1 mL of the basal medium (containing 1.25% FBS) supplemented with same concentration of the trout Ea-4 peptide. The plates were incubated at 37° C. in a humidified incubator with 5% CO2 and examined daily under an inverted microscope for 2-3 weeks. Colonies were observed under an Olympic inverted microscope equipped with phase contrast objective lenses (final magnification: 40×). Colonies with sizes ≥50 µm were scored. The viability of cells at the conclusion of the experiment was confirmed by dye extrusion assay with tryptan blue. The assay was conducted two times.

293GP cells = experiment: Cell attachment assay; format: cell-based, human; details: 0.8 μM, serum-free medium, four days, after shaking
Procedure: To confirm whether treatment of transformed cells with the Ea-4 peptide could result in increased attachment of the cells to the culture dish, 293GP cells were cultured in a serum-free basal medium supplemented with Ea-4-peptide (0.8 µM) or 10% FBS, respectively, in 6-well culture chambers. After four days, the culture medium was removed, and cells were rinsed twice with PBS containing 0.02% EDTA, fresh PBS was added, and the culture plates shaken 20 times manually.

MDA-MB-231 (C) cells = experiment: Apoptosis observed under microscope; format: cell-based, human; details: about 1.5 μM, about two hours
Procedure: FIG. 21 depicts apoptosis in MDA-MB-231 cells induced by rtEa4-peptide. MDA-MB-231 cells treated with about 1.5 μM of rtEa4-peptide (A, B, and C) or control peptide (D) for about two hours and observed under a microscope. Arrows indicate apoptotic cells.
(§1) Killing of cancer cells by E-peptide could be the consequence of apoptosis or necrosis. To differentiate these two possibilities, MDA-MB-231 (C) cells were grown in culture in the presence of about 1.5 μM of trout Ea4-peptide. After about two hours of incubation the cells were observed under a microscope. […] FIG. 22 presents the results of the effect of trout Ea4-peptide on induction of apoptosis in ovarian cancer cells (SKOV-3).

[3] = test system: ovarian cancer cells (SKOV-3); experiment: Apoptosis observed under microscope; format: cell-based, human; details: 0.1-3.4 μM, 4 hours
Procedure: FIG. 22 depicts apoptosis in ovarian cancer cells (SKOV) induced by various amounts of rtEa4-peptide. SKOV cells were treated with various amounts (0.1-3.4 μM) for 4 hours and observed under a microscope. Arrows indicate apoptotic cells.
as §1

[4] = test system: Caspase-3 mRNA in OVCAR-3(B); experiment: Induction of caspase-3 mRNA; format: cell-based, human
From the text: Induction of caspase-3 has been widely used as an indicator of cells undergoing apoptosis.

| Molecule | Apoptosis [1] | induction of morphological change (293GP or ZR-75-1 cells) | colonies developed in soft agar medium [2] | attachment of cells to the culture chamber (293GP cells) | apoptosis (microscopy) (MDA-MB-231 (C) cells) | apoptosis (microscopy) [3] | Caspase-3 mRNA ([4]; 0.04 μM) | Caspase-3 mRNA ([4]; 0.20 μM) | Caspase-3 mRNA ([4]; 1.00 μM) | Caspase-3 mRNA ([4]; 5.00 μM) |
| --- | --- | --- | --- | --- | --- | --- | --- | --- | --- | --- |
| hEb: chemically synthesized human Eb peptide of pro-IGF-I, 77 amino acid residues (SEQ ID NO:1) (peptide, listed as Homo sapiens) RSVRAQRHTDMPKTQKYQPPSTNKNTKSQRRKGWPKTHPGGEQKEGTEASLQIRGKKKEQRREIGSRNAECRGKKGK | − |  |  |  |  |  |  |  |  |  |
| rtEa-4: recombinant Ea-4 peptide of rainbow trout pro-IGF-I, 74 amino acid residues (SEQ ID NO: 2) (protein, Oncorhynchus mykiss) RSVRAQRHTDMPRTPKVSTAVQNVDRGTERRTAQHPDKTKTKKKPLSGHSHPSCKEVHQKNSSRGNTGGRNYRM |  | able to induce morphological change | fewer colonies | remained attached to the culture chamber | going through apoptosis | dose-dependent induction of apoptosis | 7.8 × 10^5 ± 7.9 × 10^4 molecules / μg total RNA | 9.9 × 10^5 ± 2.0 × 10^4 molecules / μg total RNA | 1.9 × 10^5 ± 3.4 × 10^4 molecules / μg total RNA | 1.0 × 10^5 ± 1.4 × 10^4 molecules / μg total RNA |
